From PMC9342900, “Cryo-EM structures of the Synechocystis sp. PCC 6803 cytochrome b6f complex with and without the regulatory PetP subunit” (Biochemical Journal, 2022)

B1: N-terminally hexa-Histidine (His)-tagged PetP (natural protein, Synechocystis sp. PCC 6803)
chain: MTIEIGQKVKVYRLRDRVSPDVVGKLGKVGVVKDFKMTDGSGIGAVVSFDDRTATWFFEDELKAI
notes: PetP, Synechocystis sp; PCC 6803, gene petP (ssr2998), codon optimized for E. coli, cloned into the NdeI and XhoI sites of pET28a(+); About 10 kDa protein; The vector pET28a(+) adds further residues between the His tag and the NdeI site; also called His-PetP; His6-tagged PetP; source: E. coli BL21(DE3), purified (HisTrap IMAC, PD-10 desalting); not shown: His6, N-terminal, kept
B2: PetG subunit of the Synechocystis cytb6f complex (natural protein, Synechocystis sp. PCC 6803)
chain: MIEPLLLGIVLGLIPVTLAGLFVAAYLQYKRGNQFNLD
notes: PetG, Synechocystis sp; PCC 6803, endogenous subunit of cytb6f; Stood in the structure as a subunit of m2; source: Synechocystis PetA-StrepII strain, purified as part of cytb6f (StrepTrap HP, SEC)

Legend:
[1] = molecular target: T1, Synechocystis cytb6f complex (carotenoid site) (Synechocystis sp. PCC 6803, UniProt P0DXY4+P74149+P74810+Q57038); experiment: cryo-EM structure; HPLC of extracted pigments; assay type: binding; conditions: native co-purified; 9-cis configuration suggested
T1 construct: gene petB; same complex as P1; with Cytochrome b6-f complex subunit 4; Cytochrome f; Cytochrome b6-f complex iron-sulfur subunit; Cytochrome b6-f complex subunit 8; Cytochrome b6f regulatory subunit PetP

[2] = molecular target: Synechocystis sp. PCC 6803 cytochrome b6f complex with C-terminally StrepII-tagged PetA, purified dimer (Synechocystis sp. PCC 6803) (UniProt P26287); experiment: native gel or EMSA; BN-PAGE on NativePAGE 3-12% Bis-Tris gels, Coomassie stain; purified cytb6f and cytb6f-PetP; dimer against monomer of the complex
[3] = molecular target: Synechocystis sp. PCC 6803 cytochrome b6f complex with C-terminally StrepII-tagged PetA, purified dimer (Synechocystis sp. PCC 6803) (UniProt P26287); experiment: cryo-EM structure; reconstituted cytb6f-PetP complex, 20 uM, in buffer D with GDN; 2.80 A
[4] = molecular target: Synechocystis sp. PCC 6803 cytochrome b6f complex with C-terminally StrepII-tagged PetA, purified dimer (Synechocystis sp. PCC 6803) (UniProt P26287); experiment: cryo-EM structure; cytb6f without PetP, 17 uM, in GDN; 3.15 A
[5] = molecular target: T2, Synechocystis cytb6f-PetP complex (cytochrome b6 / subunit IV core) (Synechocystis sp. PCC 6803, UniProt P27589+Q57038); experiment: cryo-EM structure, […] Å; assay type: binding; conditions: Qn site, one PQ per monomer near heme cn; native co-purified; with PetP
T2 construct: gene petB; native dimeric complex from Synechocystis thylakoids in GDN, cytochrome f with C-terminal Ser-Ala-Strep-tag II; reconstituted with His6-PetP from E. coli; with Cytochrome f; Cytochrome b6-f complex iron-sulfur subunit; Cytochrome b6-f complex subunit 5; Cytochrome b6-f complex subunit 6; Cytochrome b6-f complex subunit 7; Cytochrome b6-f complex subunit 8; Cytochrome b6f regulatory subunit PetP

[6] = molecular target: T3, Synechocystis cytb6f-PetP complex (Rieske ISP subunit) (Synechocystis sp. PCC 6803, UniProt P26290); experiment: cryo-EM structure, […] Å; assay type: binding; conditions: native co-purified
T3 construct: gene petC1; same complex as P1; with Cytochrome b6; Cytochrome b6-f complex subunit 4; Cytochrome f; Cytochrome b6-f complex subunit 5; Cytochrome b6-f complex subunit 6; Cytochrome b6-f complex subunit 7; Cytochrome b6-f complex subunit 8; Cytochrome b6f regulatory subunit PetP
T3 sequence (P26290 2-180): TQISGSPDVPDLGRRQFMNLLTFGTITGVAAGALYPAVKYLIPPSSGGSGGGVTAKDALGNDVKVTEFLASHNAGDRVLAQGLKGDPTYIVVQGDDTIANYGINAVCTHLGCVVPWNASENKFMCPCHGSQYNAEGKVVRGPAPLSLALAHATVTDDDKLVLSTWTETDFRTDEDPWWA

[7] = molecular target: T4, subunit IV of the Synechocystis cytb6f complex (Synechocystis sp. PCC 6803, UniProt P27589 1-160); experiment: cryo-EM structure; reconstituted cytb6f-PetP complex, 20 uM, in buffer D with GDN; 2.80 A; conditions: both partners purified
T4 construct: subunit IV, Synechocystis sp; PCC 6803, endogenous subunit of cytb6f; Stood in the structure as a subunit of m2; also called subIV; source: Synechocystis PetA-StrepII strain, purified as part of cytb6f (StrepTrap HP, SEC)
T4 sequence: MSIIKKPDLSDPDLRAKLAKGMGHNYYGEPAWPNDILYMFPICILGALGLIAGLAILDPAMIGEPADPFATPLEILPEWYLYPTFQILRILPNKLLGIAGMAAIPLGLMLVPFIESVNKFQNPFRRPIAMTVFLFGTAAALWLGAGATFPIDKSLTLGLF

[8] = molecular target: T5, cytochrome b6 subunit of the Synechocystis cytb6f complex (Synechocystis sp. PCC 6803, UniProt Q57038 1-222); experiment: as above; conditions: both partners purified
T5 construct: cytochrome b6, Synechocystis sp; PCC 6803, endogenous subunit of cytb6f; Stood in the structure as a subunit of m2; source: Synechocystis PetA-StrepII strain, purified as part of cytb6f (StrepTrap HP, SEC)
T5 sequence: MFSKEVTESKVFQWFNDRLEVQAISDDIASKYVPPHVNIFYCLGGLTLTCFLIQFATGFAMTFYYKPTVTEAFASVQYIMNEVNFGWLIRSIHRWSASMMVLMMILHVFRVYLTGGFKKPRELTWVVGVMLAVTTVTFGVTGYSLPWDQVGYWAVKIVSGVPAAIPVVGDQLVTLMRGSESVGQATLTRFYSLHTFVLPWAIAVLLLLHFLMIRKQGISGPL

[9] = molecular target: B1; experiment: as above; conditions: both partners purified

CC1=C(/C=C/C(C)=C/C=C/C(C)=C/C=C/C=C(C)/C=C/C=C(C)/C=C/C2=C(C)C(=O)CCC2(C)C)C(C)(C)CCC1 [echinenone]
cryo-EM structure; HPLC of extracted pigments [1]: clear density for the ketone group on the end ring of echinenone

Synechocystis sp. PCC 6803 cytochrome b6f complex with C-terminally StrepII-tagged PetA, purified dimer (from UniProt P26287 45-328; Q57038 1-222; P27589 1-160; P74149 1-38; P74810 1-36; P72717 1-29)
stoichiometry N [2]: 2 | stoichiometry N [3]: 2 | stoichiometry N [4]: 2

CC(C)=CCC/C(C)=C/CC/C(C)=C/CC/C(C)=C/CC/C(C)=C/CC/C(C)=C/CC/C(C)=C/CC/C(C)=C/CC/C(C)=C/CC1=CC(=O)C(C)=C(C)C1=O [PQ, plastoquinone]
cryo-EM structure, 2.80 Å [5]: resolves two native PQ molecules, one bound at each Qn site within the dimer

[S]1[Fe][S][Fe]1 [2Fe-2S cluster]
cryo-EM structure, 2.80 Å [6]: the 2Fe-2S cluster (orange Fe and yellow S)

B1
binding result [7]: binds | binding result [8]: binds

B2
binding result [9]: binds
